Test results published in the DeepSol protein solubility set.

Assay: soluble on expression in E. coli; label from the status in PepcDB or PDB records

Sequence	soluble on expression in E. coli
MDMDREQSVQHFLDLIKKSHRGKFKIYIGMIAGVGKSYRMLQEAHELLENGVDVQIGYIETHGRAGTEALMQGLPVIPRRKIFYKGKELEEMDVDAIIRLHPEIVIVDELAHTNVEGSLNEKRWQDVMTLLDEGINVISAINIQHIESVNEEVQEITGIEVKERVPDSVLQEADEVVNIDLTAEELISRLKAGKIYRPEKIQTALDNFFRTENILQLRELALKEVALRVEKKVENEVVMGVSVGIRHEKFMACISSHEKTPRRIIRKAARLATRYNTTFVALYVQTPRESMDRIDLASQRYLLNHFKLVAELGGEVIQVQSKDILGSIVKVCRDKQISSVCMGTPNLRFPHAICSILGYRKFLNNLSQANVDLIILA	not soluble
MDMNSFSPMMPTSPLSMINQIKFEDEPDLKDLFITVDEPESHVTTIETFITYRIITKTTRGEFDSSEFEVRRRYQDFLWLKGKLEEAHPTLIIPPLPEKFIVKGMVERFNDDFIETRRKALHKFLNRIADHPTLTFNEDFKIFLTAQAWELSSHKKQGPGLLSRMGQTVRAVASSMRGVKNRPEEFMEMNNFIELFSQRINLIDKISQRIYKEEREYFDEMKEYGPIHILWSASEEDLVDTLKDVASCIDRCCKATEKRMSGLSEALLPVVHEYVLYSEMLMGVMKRRDQIQAELDSKVEVLTYKKADTDLLPEEIGKLEDKVECANNALKADWERWKQNMQNDIKLAFTDMAEENIHYYEQCLATWESFLTSQTNLHLEEASEDKP	soluble
MDNEFTSPVYGVKAVPVERIRANSYNPNVTAPPEMRLLELSIWEDGYTMPCVCYYIEKEDVYELVDGYHRYKVMMTSPRIYKRENGLLPVTVIRKDLAERMASTIRHNRARGMHKIELMTRLVGELTRSGMSDSWIRRNLGMDKDELLRLKQISGLAELFADKEFRKAVE	not soluble
MDNEKGLLIVLSGPSGVGKGTVRKRIFEDPSTSYKYSISMTTRQMREGEVDGVDYFFKTRDAFEALIKDDQFIEYAEYVGNYYGTPVQYVKDTMDEGHDVFLEIEVEGAKQVRKKFPDALFIFLAPPSLEHLRERLVGRGTESDEKIQSRINEARKEVEMMNLYDYVVVNDEVELAKNRIQCIVEAEHLKRERVEAKYRKMILEAKK	soluble
MDNLLNEKKLTIFTSNEIQDNLNRVLKDYEQNGIIGLNGYLNQANRISLLNELEIMQKDAEQDIARYWNNKIIHFYSKDPLKPESVDREYVTEPYFQASSNKAHVFYEVIDNMRVVNRIGHGMHLINRYPMMQRAVYDSPVLLDLLKGIGFKKPICHLSVYIPKYPNGIGSEVRPHQESTFAFTEPQSVVVLWVALEDALIENACMYGVLGSNHWPLKWVSKVDRETKTRHFEQVHQLHIPDFMTEREFYTALEVKAGDALLFHGNFVHCSPMNTSKNSRKALSFQFIETYEVDYPETNWLYPPNKVYLYLEHHHHHH	not soluble
MDNNPIENFMRTTMENIKGMIDVNTIVGEPIKNTDGSLIIPISKVSFGFASGGSEFKSQEDSQENKKIYPFGGGAGAGVSLKPIAFLVIKDDSVRLLPLNAENTYEKVVDMIPQLIEMCKGFSHKSKKEKCCNDDKKKDSNSTNGNTDNANQNSQQQSLEHHHHHH	soluble
MDNTYRDEKVNGCGPGDVNLMLELLEKGEKIGGKSADQSSLFVALCRSVGIPAREVFGIRVLPSSFSEGLSIKPGSKDITKAQHCRAEFWAGEWIPVDPADVTKLILKEKLPRNHPRVNFARRYFFGNWDPHWIAYNWGRDFVLEPPQRVKPLNLFGYPYAEVKGEPLNWLEPKSFVYRIKLVRA	not soluble
MDPDKKKMFEVIIKKIQQQSSALEEAMKAQKPKVDCSMSREMCSPSGLIIIMERIYEKEFLADMARLNVLPVDVLTRVSAQDSIATEEAKGRLLNESRDVLSEWLDHNHGKDARDHSVFDDLAKRRIFYLAGPFLQSQWHLECSVISSSAVPAARNIVWNDHLRIRRDAAVAAAAAVNNTAGLADMDQGTRIELPKSKHQWSHQDASRHIKFVKSSVGKFFKKKIIQKFSTGGSQNLFFFYTSVCVQDIALNCTSPFWEINNEYNPVIKFSKIRFPADISVINGFRMPFLKM	not soluble
MDPFGILYTDLYQLTMGQVYFRMGLHEKEALFEAFYRRNPDYGAHQAGYTVFAGLDPLLSWMEEARFGEEEIAALRNLKSRSGKPLFAEDYLRYLKAMGGFSGLTLRALPEGRVAHPQVPLVSVEGPLLQAQLLETALLNRLNYETLIATKASRVREAAGEAVVLEFGLRRAPAKGGESATRASLIGGANRSSAVSLSHLLGLPASGTHAHSLVQAFMALGYSEEDAFRAFAEVFPDDAILLLDTVDTLHSGLPHAIRVFEELRRKGHRPVGVRIDSGDLAHLAIQVARELDRAGFPEVLIVLSGDLDELVIWQIKSQILEEAPRYGVDPDRLLKRLVYGVGTRMVVSWGAPALGGVYKLVAVRENGTWAPAMKVSNSLEKVLNPGHKRVYRVYDERGLATADLLALAEEEVREDAPLTLRHPTDPTKRRTLRPGSFRLEPLLEEVYRGRRLFPPLPLEELRKRRDRDVALLDPGVRRLVNPHVYHVSLTERLFALKEELVRRLEG	soluble
MDPLLTVLKERMRACQRRVSDRPRRQVVAIEWIDPPMASGNWIPELIALAGGENMLGTAGKHSPYIEWSTLLAIDPEVILVMPCGFDLERTRQELDQALQTYPQWQQLRALQTGQLYILDGNAYFNRPGPRLVDSLEILVEILHPCPEPKFHGVGWRPYVGPSMAKMSDEGLEHHHHHH	not soluble
MDPLSRDENYIQRLTPEMWREIKAASPEVTAEMLDDLKHGNTYYTGVETDKGVLIFSRDIIGEGQFSDYMYKYIENDFFASEFVLKSLAVHELRGWPSLMEGKLNRCHNRFGWWGDGETIRRAFQDRSVLKNVTDSETYDFTPPPHGRTITG	not soluble
MDPSSENNSPMVSPNDDKIVKITVSSVMQGVKQIVVEMKDKETVSILKNRIEQETEVLTNRQVLLFKGMELKDNNKTMTDCGINSDAKITMNVKMSTGIVTNPTTTDILLMMPPIFPTNQDQLRKEIKGMHTVHRKPKKMSGIDANASLWTPEKQMENEFTRNRMKTLLRRKKHAPILSGTPVDSEIGSAQTFSPVATPPGELSSPSTVSSHVSSGSEPESDAEVVTEKELKLFFDPPETIEEHKQCRRSMVLAPSSEEELLENLKKFEAERKTKCNTCFKKLSAAQQTMHCKCLRIFCDRHRHPKNHTCVIDYKQDGRNKLKKNNSKVGDGGWRKAKFES	not soluble
MDPSSKPLREIPGSYGIPFFQPIKDRLEYFYGTGGRDEYFRSRMQKYQSTVFRANMPPGPFVSSNPKVIVLLDAKSFPILFDVSKVEKKDLFTGTYMPSTKLTGGYRVLSYLDPSEPRHAQLKNLLFFMLKNSSNRVIPQFETTYTELFEGLEAELAKNGKAAFNDVGEQAAFRFLGRAYFNSNPEETKLGTSAPTLISSWVLFNLAPTLDLGLPWFLQEPLLHTFRLPAFLIKSTYNKLYDYFQSVATPVMEQAEKLGVPKDEAVHNILFAVCFNTFGGVKILFPNTLKWIGLAGENLHTQLAEEIRGAIKSYGDGNVTLEAIEQMPLTKSVVYESLRIEPPVPPQYGKAKSNFTIESHDATFEVKKGEMLFGYQPFATKDPKVFDRPEEYVPDRFVGDGEALLKYVWWSNGPETESPTVENKQCAGKDFVVLITRLFVIELFRRYDSFEIELGESPLGAAVTLTFLKRASI	soluble
MDQGMFYLSAAYIVKTMISGGNLLKEYIEERAVAIANYIIDYNATVRQTARKFGISKSTVHKDVTDRLENINPSLAAQARVVLDINKAERHIRGGMATKEKYQHQLQACSRK	not soluble
MDQPISVTLSSTTDPLWRSCHEYDNEMVITVNGRRIFPTLEYTVTGLDTFKLYSMCMHLDLVDDKKLRFTGGQWAESVSTEKKDPPRKVWHHNGSQTGKDWMLRNVSFDQIRITNRKSKEDGNASYVHLLTQHRYIPVLTIYEGDQLVHTARIPHSQFISVTAYHKGELNTLKTNNNPYSTGSRKDRRRERQSPVYSEGTSSEKSISPPPAKKIKDMAPALPDYSVISKPNLLQSLIFPMIAEQPSTSQSPPAPPVFPFNPDLQMQMLQPFMLPQFGFPCGFPSINPFMNPFLTPFTSMFPTPTVSPDGEGVKLEPEAFVEV	not soluble
MDRVDCIVIGAGVVGLAVARKLAQAGREVIVLEEAEAIGTITSSRNSEVIHAGIYYRAGSWMARMCVNGKHALYRYCGERGIPHKNCGKLIVATNAKETEKLQSIKAHAEANGVLDMQLLTGEAARALEPALACDAALLSPSTGIIDSHAYMLSLRGEAEEAGAAFAFHTPLIRAKAAAGMIEVEAGGEAPMALQCSLLVNAAGLAATTVARNIDGMPLDRIPPAYLAKGNYFSCNAKAPFSHLIYPVPEPGGLGVHLTLDMAGQARFGPDVEWIETINYEVDPSRAERFYPAIRRYWPTLPDGALMPSYSGIRPKIVPPAVATQDFLMQGPRDHGVAGLINLFGIESPGLTSSLAIADHVAELANILEHHHHHH	not soluble
MDSDHNHINGDLAHGFENMVCVRCNDGFSMQDQMVNSSGQVWHSECFVCAQCFEPFPDGIYFEYEGRKYCEHDFHVLFSPCCGKCNEFIVGRVIKAMNASWHPGCFCCEICNKQLADVGFLRNAGRALCRECNEREKAAGHGRYVCHKCHAMIDDGQHIKFRGDSFHPYHFKCKRCNNELTTASREVNGELYCLRCHDTMGIPICGACHRPIEERVIAALGKHWHVEHFVCSVCEKPFLGHRHYERKGLPYCEQHFHKLFGNLCFKCGDPCCGEVFQALQKTWCVKCFSCSFCDKKLDQKTKFYEFDMKPTCKRCYDRFPTELKKRISESLKDRDVENQRRSMSPGPK	not soluble
MDSDLKKVQKNSDQKQVSKSKTATAPTEPFNSKATELPSILKPKFPSDKVLKKKKSGDMFDLVGQIVIDIVDDNPDDDDRQDEATTVDTVQEGIGATVDVTLVEDVAEKAHEPASTPNVADRLQKPVAKDDNSAPVEEANRKKKEGKDPKNSEEAKKNSKKGKNGTARRSALKGVTIPPVAASLPCPPPPPPLSERKKNVGPKPCVGPAQKNLSSQRKHSSKRNRKGLLRNVAKLWGRKSDGIANPTKAMLSKKYVPPDYGVNPVDFMPDLECYFSKNDITVRDKNKCSKGEVFVEKLPFWLARLPSDDDIPKAQIQAHRPLKQAFEGNPSLLLPKCPRTLPFCEPDSDTLEKFKQVDKQMGTDVPEQASKRLCTNTFYGTLMFEKDKSASEEVKKKKEEPKLKSLGEESKLETKPKPYDFLQKKSTKTTGERGRQKPQLQKVPPQKLETGANVQKVKKMSARGLKVEMYYKLAEKNEAETSDVSILIDGHKRKFAVICNGIGREMVDLHYDSKKFPRIFSRERHLYVMFSESTSDGFRLTFGATEREQFLRIMHSLGCLLDTAIVKFSQQSSSSQPPPMRRDSTAVFNNSYNQYTSFQQASQPRVFSTIKLELSGDSCNSAFQPSQPTGFPDNQLLTIKKSSSNQISLSVEVADKCIQTEDLVDLLADDEYCMRKALRKMIENPSFIKAVAAAENTLQYIPQAEQEGLEDVTEPPINDIFFDRFHQPQLEQHDSVPED	soluble
MDSIYRDAGYDVLKVSAKTGEGIDELVDYLEGFICILAGPSGVGKSSILSRLTGEELRTQEVSEKTERGRHTTTGVRLIPFGKGSFVGDTPGFSKVEATMFVKPREVRNYFREFLRYQCKYPDCTHTNEPGCAVKEAVKNGEISCERYKSYLKIIKVYLEEIKELCREDLEHHHHHH	not soluble
MDSKILTMFNQGKHEEAIQAAVKAIDAAPDDPKRYAMLATMLISIKALDQAGELLAKARQLFPEDLELQYTAGLFAYAQADFAAAVSWFAKVRTDQTLKNDATYMLALSYQQAGQPTKALAFALTAHDLAPKQLDTALLAADLLMANDVFDAAARVLKPLLATEQPQVLFTYGMALSAAGKDGSHYLNKAKALDPKGYDQKANIVADINRFLRLQEGQDGHALEHHHHHH	soluble
